Results as given in paper PMC2744858.

Key:
14-3-3ζ = 14-3-3ζ (UniProt P63104); experiment: PACS-2 co-immunoprecipitation, 14-3-3ζ-myc western blot; conditions: reference: wild-type HA-PACS-2; sites S437
14-3-3σ = 14-3-3σ (UniProt P31947); experiment: GST pull-down, 14-3-3σ-His6 western blot; conditions: reference: wild-type GST-PACS-2MR; sites S437

binding against the reference (14-3-3ζ)	binding against the reference (14-3-3σ)	Substance
lost	–	PACS-2 (from UniProt Q86VP3) PACS-2 S437A
–	lost	PACS-2 middle region (MR) (from UniProt Q86VP3) S437A
